Source: patent US10441663B2, “Methods for treating cancer” (Bicycle Therapeutics Limited, priority 2016, dated 2019)
*1 amine or outer side, *2 acyl side, *3 side chain or, on linkers, in order; H or OH if unused. Where a SMILES comes first, the peptide text is derived from it. Bridges are numbered along the chain shown (N, C = ends). [ ]: non-standard residue; d: D form. The star is where a group is joined. X1 = COc1cc2cc(c1Cl)N(C)C(=O)C[C@H](OC(=O)[C@H](C)N(C)C(=O)CCSSC(C)CCC(=O)*)[C@]1(C)O[C@H]1[C@H](C)[C@@H]1C[C@@](O)(NC(=O)O1)[C@H](OC)/C=C/C=C(\C)C2; 1Nal = N[C@@H](Cc1cccc2ccccc12)C(=O)O; TBMB = c1c(C[*:1])cc(C[*:3])cc1C[*:2]; Tle = CC(C)(C)[C@H](N)C(=O)O; βAla = NCCC(=O)O; Sar = CNCC(=O)O

System: EBC-1 xenograft
Experiment: Efficacy of BT1718 in EBC-1 xenograft model (Example 1)
Type: in vivo, Mus Musculus
Parameters: key to Best response at 10 mg/kg: CR complete response; PR partial response
Conditions: for Tumor Size (mm^3): Mean ± SEM
Method: The objective of this study was to evaluate the anti-tumor efficacy of BT1718 in EBC-1 xenograft model in female BALB/c nude mice.
The EBC-1 tumor cells were maintained in vitro as a monolayer culture in EMEM medium supplemented with 10% heat inactivated fetal bovine serum at 37° C. in an atmosphere of 5% CO2 in air. The tumor cells will be routinely subcultured twice weekly by trypsin-EDTA treatment. The cells growing in an exponential growth phase will be harvested and counted for tumor inoculation.
Each mouse was inoculated subcutaneously at the right flank with EBC-1 tumor cells (10×10^6) in 0.2 ml of PBS for tumor development. The animals were randomized and treatment was started when the average tumor volume reaches approximately 165 mm^3 for the efficacy study.
All the procedures related to animal handling, care and the treatment in the study were performed according to the guidelines of the Association for Assessment and Accreditation of Laboratory Animal Care (AAALAC). At the time of routine monitoring, the animals were daily checked for any effects of tumor growth and treatments on normal behavior such as mobility, food and water consumption (by looking only), body weight gain/loss (body weights were measured every day), eye/hair matting and any other abnormal effect as stated in the protocol. Death and observed clinical signs were recorded on the basis of the numbers of animals within each subset.
The major endpoint was to see if the tumor growth could be delayed or mice could be cured. Tumor size was measured three times weekly in two dimensions using a caliper, and the volume was expressed in mm^3 using the formula: V=0.5 a×b^2 where a and b are the long and short diameters of the tumor, respectively. The tumor size was then used for calculations of T/C value. The T/C value (in percent) is an indication of antitumor effectiveness; T and C are the mean volumes of the treated and control groups, respectively, on a given day.
TGI was calculated for each group using the formula: TGI (%)=[1−(Ti−T0)/(Vi−V0)]×100; Ti is the average tumor volume of a treatment group on a given day, T0 is the average tumor volume of the treatment group on the day of treatment start, Vi is the average tumor volume of the vehicle control group on the same day with Ti, and V0 is the average tumor volume of the vehicle group on the day of treatment start.
Summary statistics, including mean and the standard error of the mean (SEM), are provided for the tumor volume of each group at each time point.
Statistical analysis of difference in tumor volume among the groups was conducted on the data obtained at the best therapeutic time point after the final dose.
A one-way ANOVA was performed to compare tumor volume among groups, and when a significant F-statistics (a ratio of treatment variance to the error variance) was obtained, comparisons between groups were carried out with Games-Howell test. All data were analyzed using Prism. P<0.05 was considered to be statistically significant.

COc1cc2cc(c1Cl)N(C)C(=O)C[C@H](OC(=O)[C@H](C)N(C)C(=O)CCSSC(C)CCC(=O)NCCC(=O)N(C)CC(=O)N(C)CC(=O)N(C)CC(=O)N(C)CC(=O)N(C)CC(=O)N(C)CC(=O)N(C)CC(=O)N(C)CC(=O)N(C)CC(=O)N(C)CC(=O)N[C@@H](C)C(=O)N[C@H]1CSCc3cc4cc(c3)CSC[C@H](NC(=O)[C@@H](C)NC(=O)[C@H](Cc3cccc5ccccc35)NC(=O)[C@H](CCC(=O)O)NC(=O)[C@H](CC(N)=O)NC(=O)[C@@H](C)NC1=O)C(=O)N[C@@H](CCC(=O)O)C(=O)N[C@@H](CC(=O)O)C(=O)N[C@@H](Cc1ccccc1)C(=O)N[C@@H](Cc1ccc(O)cc1)C(=O)N[C@@H](CC(=O)O)C(=O)N[C@@H](C(C)(C)C)C(=O)N[C@H](C(N)=O)CSC4)[C@]1(C)O[C@H]1[C@H](C)[C@@H]1C[C@@](O)(NC(=O)O1)[C@H](OC)/C=C/C=C(\C)C2 (some centres unmarked) [BT1718] ({X1-βAla}-[Sar][Sar][Sar][Sar][Sar][Sar][Sar][Sar][Sar][Sar]AC[dA]NE[1Nal][dA]CEDFYD[Tle]C-NH2; linker 12-18-25 via TBMB (inferred))
Tumor Volume (4.5 mpk biw, day 21): 526 ± 95 mm^3 | Body Weight (9 mpk qw, day 0): 24.0 ± 0.4 g | Body Weight (% Change) (9 mpk qw, day 0): 0.0% | Tumor Volume (9 mpk qw, day 0): 163 ± 19 mm^3 | Body Weight (9 mpk qw, day 2): 23.2 ± 0.6 g | Body Weight (% Change) (9 mpk qw, day 2): −3.4 ± 0.9% | Tumor Volume (9 mpk qw, day 2): 182 ± 25 mm^3 | Body Weight (9 mpk qw, day 4): 23.8 ± 0.5 g | Body Weight (% Change) (9 mpk qw, day 4): −0.7 ± 1.8% | Tumor Volume (9 mpk qw, day 4): 200 ± 28 mm^3 | Body Weight (9 mpk qw, day 7): 24.7 ± 0.2 g | Body Weight (% Change) (9 mpk qw, day 7): 2.8 ± 0.6% | Tumor Volume (9 mpk qw, day 7): 202 ± 64 mm^3 | Body Weight (9 mpk qw, day 9): 23.8 ± 0.5 g | Body Weight (% Change) (9 mpk qw, day 9): −1.1 ± 0.7% | Tumor Volume (9 mpk qw, day 9): 187 ± 70 mm^3 | Body Weight (9 mpk qw, day 11): 24.7 ± 0.4 g | Body Weight (% Change) (9 mpk qw, day 11): 2.8 ± 0.9% | Tumor Volume (9 mpk qw, day 11): 164 ± 61 mm^3 | Body Weight (9 mpk qw, day 14): 24.9 ± 0.4 g | Body Weight (% Change) (9 mpk qw, day 14): 3.7 ± 0.8% | T/C (%) (9 mpk qw, day 14): 12% | TGI (%) (9 mpk qw, day 14): 101% | Tumor Volume (9 mpk qw, day 14): 154 ± 72 mm^3 | Tumor Size (mm^3) (9 mpk qw, day 14): 154 ± 72 mm^3 | Body Weight (9 mpk qw, day 16): 24.6 ± 0.2 g | Body Weight (% Change) (9 mpk qw, day 16): 2.3 ± 0.6% | Tumor Volume (9 mpk qw, day 16): 186 ± 83 mm^3 | Body Weight (9 mpk qw, day 18): 24.8 ± 0.2 g | Body Weight (% Change) (9 mpk qw, day 18): 3.2 ± 0.8% | Tumor Volume (9 mpk qw, day 18): 245 ± 119 mm^3 | Body Weight (9 mpk qw, day 21): 24.8 ± 0.2 g | Body Weight (% Change) (9 mpk qw, day 21): 3.1 ± 1.0% | Tumor Volume (9 mpk qw, day 21): 320 ± 153 mm^3 | Body Weight (10 mpk tiw, day 0): 24.2 ± 0.4 g | Body Weight (% Change) (10 mpk tiw, day 0): 0.0% | Tumor Volume (10 mpk tiw, day 0): 167 ± 11 mm^3 | Body Weight (10 mpk tiw, day 2): 23.2 ± 0.6 g | Body Weight (% Change) (10 mpk tiw, day 2): −4.0 ± 1.3% | Tumor Volume (10 mpk tiw, day 2): 216 ± 21 mm^3 | Body Weight (10 mpk tiw, day 4): 23.7 ± 0.5 g | Body Weight (% Change) (10 mpk tiw, day 4): −2.1 ± 0.9% | Tumor Volume (10 mpk tiw, day 4): 205 ± 24 mm^3 | Body Weight (10 mpk tiw, day 7): 22.7 ± 0.6 g | Body Weight (% Change) (10 mpk tiw, day 7): −6.2 ± 0.8% | Tumor Volume (10 mpk tiw, day 7): 114 ± 10 mm^3 | Body Weight (10 mpk tiw, day 9): 23.1 ± 0.4 g | Body Weight (% Change) (10 mpk tiw, day 9): −4.4 ± 0.3% | Tumor Volume (10 mpk tiw, day 9): 45 ± 4 mm^3 | Body Weight (10 mpk tiw, day 11): 22.9 ± 0.6 g | Body Weight (% Change) (10 mpk tiw, day 11): −5.2 ± 1.1% | Tumor Volume (10 mpk tiw, day 11): 16 ± 3 mm^3 | Body Weight (10 mpk tiw, day 14): 23.8 ± 0.5 g | Body Weight (% Change) (10 mpk tiw, day 14): −1.6% | T/C (%) (10 mpk tiw, day 14): 0% | TGI (%) (10 mpk tiw, day 14): 115% | Tumor Volume (10 mpk tiw, day 14): 0 ± 0 mm^3 | Tumor Size (mm^3) (10 mpk tiw, day 14): 0 ± 0 mm^3 | Body Weight (15 mpk biw, day 0): 23.7 ± 0.3 g | Body Weight (% Change) (15 mpk biw, day 0): 0.0% | Tumor Volume (15 mpk biw, day 0): 161 ± 12 mm^3 | Body Weight (15 mpk biw, day 2): 22.7 ± 0.4 g | Body Weight (% Change) (15 mpk biw, day 2): −4.2 ± 0.6% | Tumor Volume (15 mpk biw, day 2): 173 ± 11 mm^3 | Body Weight (15 mpk biw, day 4): 22.6 ± 0.3 g | Body Weight (% Change) (15 mpk biw, day 4): −4.5 ± 0.3% | Tumor Volume (15 mpk biw, day 4): 136 ± 10 mm^3 | Body Weight (15 mpk biw, day 7): 22.8 ± 0.4 g | Body Weight (% Change) (15 mpk biw, day 7): −3.7 ± 2.5% | Tumor Volume (15 mpk biw, day 7): 79 ± 1 mm^3 | Body Weight (15 mpk biw, day 9): 22.7 ± 0.2 g | Body Weight (% Change) (15 mpk biw, day 9): −4.3 ± 1.7% | Tumor Volume (15 mpk biw, day 9): 36 ± 2 mm^3 | Body Weight (15 mpk biw, day 11): 23.4 ± 0.3 g | Body Weight (% Change) (15 mpk biw, day 11): −1.2 ± 0.3% | Tumor Volume (15 mpk biw, day 11): 12 ± 0 mm^3 | Body Weight (15 mpk biw, day 14): 23.7 ± 0.5 g | Body Weight (% Change) (15 mpk biw, day 14): 0.2 ± 1.4% | T/C (%) (15 mpk biw, day 14): 0% | TGI (%) (15 mpk biw, day 14): 115% | Tumor Volume (15 mpk biw, day 14): 0 ± 0 mm^3 | Tumor Size (mm^3) (15 mpk biw, day 14): 0 ± 0 mm^3 | Body Weight (30 mpk qw, day 0): 24.6 ± 0.6 g | Body Weight (% Change) (30 mpk qw, day 0): 0.0% | Tumor Volume (30 mpk qw, day 0): 166 ± 10 mm^3 | Body Weight (30 mpk qw, day 2): 20.9 ± 0.3 g | Body Weight (% Change) (30 mpk qw, day 2): −14.9 ± 2.2% | Tumor Volume (30 mpk qw, day 2): 166 ± 22 mm^3 | Body Weight (30 mpk qw, day 4): 21.9 ± 1.0 g | Body Weight (% Change) (30 mpk qw, day 4): −10.8 ± 4.3% | Tumor Volume (30 mpk qw, day 4): 128 ± 6 mm^3 | Body Weight (30 mpk qw, day 7): 23.1 ± 1.0 g | Body Weight (% Change) (30 mpk qw, day 7): −6.2 ± 3.5% | Tumor Volume (30 mpk qw, day 7): 89 ± 4 mm^3 | Body Weight (30 mpk qw, day 9): 20.8 ± 1.0 g | Body Weight (% Change) (30 mpk qw, day 9): −15.5 ± 3.4% | Tumor Volume (30 mpk qw, day 9): 47 ± 3 mm^3 | Body Weight (30 mpk qw, day 11): 22.1 ± 0.9 g | Body Weight (% Change) (30 mpk qw, day 11): −10.3 ± 3.3% | Tumor Volume (30 mpk qw, day 11): 18 ± 2 mm^3 | Body Weight (30 mpk qw, day 14): 24.0 ± 1.0 g | Body Weight (% Change) (30 mpk qw, day 14): −2.4 ± 3.2% | T/C (%) (30 mpk qw, day 14): 0% | TGI (%) (30 mpk qw, day 14): 115% | Tumor Volume (30 mpk qw, day 14): 0 ± 0 mm^3 | Tumor Size (mm^3) (30 mpk qw, day 14): 0 ± 0 mm^3 | Best response at 10 mg/kg (EBC-1, 10 mg/kg): CR | Minimally Effective Dose IV BIW (EBC-1, dose leading to tumor-stasis): <10 mg/kg | body weight effect (other groups (all except 30 mg/kg qw)): maintained their bodyweight well | treatment effect (same total dose, schedules from daily to a single weekly dose): Effective treatment
